Measurements published in US8541373B2, “BChE albumin fusions for the treatment of cocaine abuse” (priority 2009, dated 2013).
“And” between values parts separate entries of the source, which are not always exact repeats. Equal values may be shown once. Read-outs that look alike come from different tables or passages of the source.

Key:
[1] = system: cocaine-induced reinstatement; assay: Reinstatement of cocaine self-administration; format: in vivo, squirrel monkeys (Saimiri sciureus)
Protocol: The blood level data were analyzed separately for each metabolite and time point (5 or 30 min). […] The self-administration data were analyzed separately for response rate or injections following either vehicle treatment or AlbuBChE treatment. Control data were included in the analysis by taking the average of the last 3 days for the immediately preceding baseline condition. A within subjects ANOVA was then performed with follow-up tests contrasting days following vehicle or AlbuBChE with the control. For the reinstatement tests, a two-way ANOVA was performed for both response rate and injections, with time post vehicle or AlbuBChE as the within-subjects factor and pretreatment (vehicle or AlbuBChE) as the between subjects factor. Follow-up contrast compared vehicle and AlbuBChE at each time point.

cocaine [2] = assay: AlbuBChE PK/PD analysis, sigmoidal inhibitory effect Emax model (cocaine AUC)
From the text: AlbuBChE PK/PD relationship was defined using the computer software WinNonlin Professional (Version 4.0.1 Pharsight Corporation, USA). Specifically the direct sigmoidal inhibitory Effect Emax model was use in which maximum effect (Emax) as measured by cocaine AUC was assumed at AlbuBChE concentration of zero. The model equation can be described as follows: Inhibitory Effect Sigmoid Emax, C=0 at Emax, C=infinity at Eo E=Emax−(Emax−E0)*(C**Gamma/(C**Gamma+EC50**Gamma))
The PD parameter used in the analysis was cocaine AUC. PK parameters used in the model were AlbuBChE plasma concentrations at 2, 48, 96, 120, and 240 hr post-AlbuBChE dose. Due to the fact that AlbuBChE concentration was not measured at 2 hr post-AlbuBChE dose, the concentration at 3 hr postdose was used in the analysis with the assumptions that AlbuBChE concentration at 3 hr post AlbuBChE dose may reflect AlbuBChE conc. at 2 hr post AlbuBChE dose.

[3] = rats, i.v. injection, cited from earlier work
cocaine [4] = assay: AlbuBChE PK/PD analysis, direct inhibitory effect Emax model (cocaine concentration at 5 min); conditions: Squirrel monkeys, cocaine at 5 min, approximate estimate
Protocol: In spite of the limited amount of data, an attempt was made to characterize PK/PD relationship. The computer software WinNonlin Professional (Version 4.0.1 Pharsight Corporation, USA) was used. Specifically the direct Inhibitory Effect Emax model was use in which Emax was assumed at AlbuBChE concentration of zero. The model equation can be described as follows: E=Emax*(1−(C/(C+EC50)))
The PD parameter used in the analysis was cocaine plasma concentration at 5 min post-cocaine dose. PK parameters used in the model were AlbuBChE plasma concentrations at 2, 72 and 96 hr post-AlbuBChE dose. Due to the fact that AlbuBChE concentration was not measured at 2 hr post-AlbuBChE dose, the 1st time sample collected was used in the analysis (24 hr post-AlbuBChE dose) with the assumptions that AlbuBChE concentration at 24 hr post AlbuBChE dose may reflect AlbuBChE concentration at 2 hr post AlbuBChE dose.

[5] = Animal observations in PK/PD study
[6] = AlbuBChE serum pharmacokinetics after single 5 mg/kg IM dose (ELISA); conditions: for AlbuBChE serum concentration, individual Squirrel monkeys: 5 mg/kg IM
Protocol: To evaluate AlbuBChE pharmacokinetics and pharmacodynamics following a single 5 mg/kg intramuscular injection of AlbuBChE to Squirrel monkeys. AlbuBChE pharmacodynamic effect was measured following cocaine IV administration at a dose of 1 mg/kg in control animals or at 2, 72 and 96 hr post-AlbuBChE dose.
Blood samples (0.4 mL) were collected from the femoral vein and placed into serum separator tubes (SST) at pre-dose, 24, 72, 96 & 336 hrs post-dose (samples collected at 336 hr (14 days) post-dose were intended to evaluate immunogenicity. The samples were also analyzed for AlbuBChE concentration). Tubes were maintained at room temperature for at least 1 hour, but not to exceed 4 hours prior to centrifugation. Samples were centrifuged and at least 200 μL of serum was harvested and maintained on dry ice prior to storage at approximately −70° C.
Blocking is done with 2% casein in phosphate buffered saline (PBS), 200 μL/well, 2 hours at room temperature. After washing, 100 μL of diluted serum samples are added to the plates along with standards. Standards are generated through 2.6 fold, serial dilution of AlbuBChE from 420 to 5.2 ng/mL. Serum samples and standards are maintained at 10% serum by dilution with buffer containing pooled cynomolgus monkey serum. A wash step precedes detection with 100 μl of anti-HSA mAb-6502-HRP at 0.04 μg/mL for 1 hour. Wells are washed again, prior to developing with 100 μl, of tetramethylbenzidine substrate. After 15 minutes the reaction is terminated with 100 μL/well of 1N H2SO4 and read on SpectraMax plate reader at 450/570 nm. Values for unknown serum samples are calculated by interpolation of standard curve generated by 5-parameter fit of AlbuBChE standards. Serum samples collected at predose and on Day 14 postdose were also analyzed for immunogenicity.
AlbuBChE pharmacokinetic parameter values were determined using serum concentration-time profiles for individual animals. The computer software WinNonlin Professional (Version 4.0.1 Pharsight Corporation, USA) was used. Specifically the model for non-compartmental analysis with extravascular input was applied.

[7] = individual Squirrel monkeys, single IM 5 mg/kg
[8] = individual Squirrel monkeys, single IM 5 mg/kg, apparent, first sample at 24 hr
[9] = mean of 3 Squirrel monkeys, single IM 5 mg/kg

Substance: AlbuBChE
- Reinstatement of responding (response rate and injections) ([1]; 5 mg/kg i.m., 0.3 mg/kg cocaine i.v., 2 hr time point): significantly blocked
- Reinstatement of responding (responses and injections) ([1]; 5 mg/kg, 0.1 mg/kg cocaine as reinstatement dose): significant at 2 hrs
- AlbuBChE Conc. used in PK/PD analysis, individual animals (cocaine [2]; 0.2 mg/kg IM, time 2 hr): 107 ng/mL and 257 ng/mL and 196 ng/mL
- AlbuBChE Conc. used in PK/PD analysis, individual animals (cocaine [2]; 0.2 mg/kg IM, time 48 hr): 0 ng/mL and 66.4 ng/mL and 80.7 ng/mL
- AlbuBChE Conc. used in PK/PD analysis, individual animals (cocaine [2]; 0.2 mg/kg IM, time 96 hr): 0 ng/mL (2×) and 30 ng/mL
- AlbuBChE Conc. used in PK/PD analysis, individual animals (cocaine [2]; 0.2 mg/kg IM, time 120 hr): 0 ng/mL
- AlbuBChE Conc. used in PK/PD analysis, individual animals (cocaine [2]; 0.2 mg/kg IM, time 240 hr): 0 ng/mL
- Cocaine AUC(0-t), individual animals (cocaine [2]; 0.2 mg/kg IM, cocaine 1 mg/kg IV 2 hr post-AlbuBChE): 13317 ng·min/mL and 10812 ng·min/mL and 11504 ng·min/mL
- Cocaine AUC(0-t), individual animals (cocaine [2]; 0.2 mg/kg IM, cocaine 1 mg/kg IV 48 hr post-AlbuBChE): 8550 ng·min/mL and 7315 ng·min/mL and 7276 ng·min/mL
- Cocaine AUC(0-t), individual animals (cocaine [2]; 0.2 mg/kg IM, cocaine 1 mg/kg IV 96 hr post-AlbuBChE): 13936 ng·min/mL and 8978 ng·min/mL and 10522 ng·min/mL
- Cocaine AUC(0-t), individual animals (cocaine [2]; 0.2 mg/kg IM, cocaine 1 mg/kg IV 120 hr post-AlbuBChE): 11293 ng·min/mL and 11428 ng·min/mL and 12111 ng·min/mL
- Cocaine AUC(0-t), individual animals (cocaine [2]; 0.2 mg/kg IM, cocaine 1 mg/kg IV 240 hr post-AlbuBChE): 13669 ng·min/mL and 12762 ng·min/mL and 14649 ng·min/mL
- AlbuBChE Conc. used in PK/PD analysis, individual animals (cocaine [2]; 1 mg/kg IM, time 2 hr): 1362 ng/mL and 918 ng/mL and 1777 ng/mL
- AlbuBChE Conc. used in PK/PD analysis, individual animals (cocaine [2]; 1 mg/kg IM, time 48 hr): 389 ng/mL and 363 ng/mL and 264 ng/mL
- AlbuBChE Conc. used in PK/PD analysis, individual animals (cocaine [2]; 1 mg/kg IM, time 96 hr): 87 ng/mL and 132 ng/mL and 75 ng/mL
- AlbuBChE Conc. used in PK/PD analysis, individual animals (cocaine [2]; 1 mg/kg IM, time 120 hr): 36 ng/mL and 72 ng/mL and 38 ng/mL
- AlbuBChE Conc. used in PK/PD analysis, individual animals (cocaine [2]; 1 mg/kg IM, time 240 hr): 0 ng/mL
- Cocaine AUC(0-t), individual animals (cocaine [2]; 1 mg/kg IM, cocaine 1 mg/kg IV 2 hr post-AlbuBChE): 6597 ng·min/mL and 9746 ng·min/mL and 7297 ng·min/mL
- Cocaine AUC(0-t), individual animals (cocaine [2]; 1 mg/kg IM, cocaine 1 mg/kg IV 48 hr post-AlbuBChE): 6025 ng·min/mL and 5033 ng·min/mL and 6839 ng·min/mL
- Cocaine AUC(0-t), individual animals (cocaine [2]; 1 mg/kg IM, cocaine 1 mg/kg IV 96 hr post-AlbuBChE): 9166 ng·min/mL and 9925 ng·min/mL and 11042 ng·min/mL
- Cocaine AUC(0-t), individual animals (cocaine [2]; 1 mg/kg IM, cocaine 1 mg/kg IV 120 hr post-AlbuBChE): 10451 ng·min/mL and 11561 ng·min/mL and 12568 ng·min/mL
- Cocaine AUC(0-t), individual animals (cocaine [2]; 1 mg/kg IM, cocaine 1 mg/kg IV 240 hr post-AlbuBChE): 14533 ng·min/mL and 13998 ng·min/mL and 14560 ng·min/mL
- AlbuBChE Conc. used in PK/PD analysis, individual animals (cocaine [2]; 5 mg/kg IM, time 2 hr): 3740 ng/mL and 9627 ng/mL and 4923 ng/mL
- AlbuBChE Conc. used in PK/PD analysis, individual animals (cocaine [2]; 5 mg/kg IM, time 48 hr): 1330 ng/mL and 2644 ng/mL and 1605 ng/mL
- AlbuBChE Conc. used in PK/PD analysis, individual animals (cocaine [2]; 5 mg/kg IM, time 96 hr): 415 ng/mL and 733 ng/mL and 455 ng/mL
- AlbuBChE Conc. used in PK/PD analysis, individual animals (cocaine [2]; 5 mg/kg IM, time 120 hr): 217 ng/mL and 326 ng/mL and 224 ng/mL
- AlbuBChE Conc. used in PK/PD analysis, individual animals (cocaine [2]; 5 mg/kg IM, time 240 hr): 58 ng/mL and 71 ng/mL and 63 ng/mL
- Cocaine AUC(0-t), individual animals (cocaine [2]; 5 mg/kg IM, cocaine 1 mg/kg IV 2 hr post-AlbuBChE): 4594 ng·min/mL and 3039 ng·min/mL and 2234 ng·min/mL
- Cocaine AUC(0-t), individual animals (cocaine [2]; 5 mg/kg IM, cocaine 1 mg/kg IV 48 hr post-AlbuBChE): 3323 ng·min/mL and 2628 ng·min/mL and 3095 ng·min/mL
- Cocaine AUC(0-t), individual animals (cocaine [2]; 5 mg/kg IM, cocaine 1 mg/kg IV 96 hr post-AlbuBChE): 6428 ng·min/mL and 6887 ng·min/mL and 6556 ng·min/mL
- Cocaine AUC(0-t), individual animals (cocaine [2]; 5 mg/kg IM, cocaine 1 mg/kg IV 120 hr post-AlbuBChE): 7954 ng·min/mL and 9620 ng·min/mL and 10560 ng·min/mL
- Cocaine AUC(0-t), individual animals (cocaine [2]; 5 mg/kg IM, cocaine 1 mg/kg IV 240 hr post-AlbuBChE): 11173 ng·min/mL and 13745 ng·min/mL and 13937 ng·min/mL
- AlbuBChE serum concentration that may result in 50% decrease in cocaine concentration (EC50) (cocaine [2]; cynomolgus monkeys, sigmoidal inhibitory effect Emax model, PD parameter cocaine AUC): ~0.6 µg/mL
- Plasma half-life [3]: approximately 8 hours
- Plasma half-life ([3]; listed as BChE-albumin fusion): 8 h
- AlbuBChE serum concentration that may result in 50% decrease in cocaine concentration (EC50) (cocaine [4]): ~0.4 µg/mL
- Cocaine-related observations (hyperactivity, increased respiratory rate with abdominal breathing) ([5]; pre-treatment 0.2 to 5 mg/kg, cocaine 1 mg/kg): not observed for five days
- Clinical or cageside observations associated with AlbuBChE ([5]; single IM 0.2, 1 or 5 mg/kg): no clinical or cageside observations
- Deaths during the study ([5]; single IM 0.2, 1 or 5 mg/kg): no deaths
- Tolerability ([5]; single IM dose of 0.2, 1 or 5 mg/kg): well tolerated
- AlbuBChE serum concentration, individual Squirrel monkeys ([6]; 24 hr post dose): 2340.2 ng/mL and 2296.7 ng/mL and 2036.7 ng/mL
- AlbuBChE serum concentration, individual Squirrel monkeys ([6]; 72 hr post dose): 436.9 ng/mL and 517.7 ng/mL and 433.7 ng/mL
- AlbuBChE serum concentration, individual Squirrel monkeys ([6]; 96 hr post dose): 247.5 ng/mL (2×) and 233.5 ng/mL
- AlbuBChE serum concentration, individual Squirrel monkeys ([6]; 336 hr post dose): 23.4 ng/mL and 19.0 ng/mL and 7.0 ng/mL
- t½ ([6]; individual Squirrel monkeys (MKY 547, 3434, 53B), single IM 5 mg/kg AlbuBChE, serum, non-compartmental): 58.8 h and 45.5 h and 65.5 h
- AUC % Extrap [6, 7]: 1.17% and 0.380% and 1.61%
- AUC(0-t) [6, 7]: 136.268 µg·h/mL and 120.596 µg·h/mL and 135.454 µg·h/mL
- AUC(0-∞) [6, 7]: 137.881 µg·h/mL and 121.056 µg·h/mL and 137.666 µg·h/mL
- Cmax [6, 8]: 2297 ng/mL and 2037 ng/mL and 2340 ng/mL
- tmax [6, 8]: 24 h
- AUC(0-t) Mean [6, 9]: 130.773 µg·h/mL
- AUC(0-∞) Mean [6, 9]: 132.201 µg·h/mL
